# Source: PMC7954794 (2021)
# B1: S. cerevisiae Abp1 (full length; SH3 domain 535-592 mutated) / Hua2 (parent complex)
# chain 1: MALEPIDYTTHSREIDAEYLKIVRGSDPDTTWLIISPNAKKEYEPESTGSSFHDFLQLFDETKVQYGLARVSPPGSDVEKIIIIGWCPDSAPLKTRASFAANFAAVANNLFKGYHVQVTARDEDDLDENELLMKISNAAGARYSIQTSSKQQGKASTPPVKKSFTPSKSPAPVSKKEPVKTPSPAPAAKISSRVNDNNDDDDWNEPELKERDFDQAPLKPNQSSYKPIGKIDLQKVIAEEKAKEDPRLVQKPTAAGSKIDPSSDIANLKNESKLKRDSEFNSFLGTTKPPSMTESSLKNDDDKVIKGFRNEKSPAQLWAERKAKQNSGNAETKAEAPKPEVPEDEPEGEPDVKDLKSKFEGLAASEKEEEEMENKFAPPPKKSEPTIISPKPFSKPQEPVKAEEAEQPKTDYKKIGNPLPGMHIEADNEEEPEENDDDWDDDEDEAAQPPLPSRNVASGAPVQKEEPEQEEIAPSLPSRNSIPAPKQEEAPEQAPEEEIEEEAEEAAPQLPSRSSAAPPPPPRRATPEKKPKENPWATAEYDYDAAEDNELTFVENDKIINIEFVDDDWWLGELEKDGSKGLFPSNYVSLGN
# chain 2: MQQTKFGKMYLDHDSVVEYSEDEIVEADRITLGYKKRLSMIENQMRHLLEDFSLDVQQIEPILADLQKYYDAFLQLLQKRNKSLQCKRSTHQPVPSPMNSQTSTNAKVNLSGKLMKFQLNSVQKFDEENILRILQNKIEFEHYFQIDKGKKQKVLLLAVYQCLNGPTRLHKVLNIEGIIHNNSIRTILGKQVSSSKWTVFLYDVKLVLLAHRQDVPNLETSKMIVRYGDLFPCALYFKDHTAY
# Variants of: B1
# Experiment: DHFR protein-fragment complementation in yeast (Abp1-DHFR F[1,2] x partner-DHFR F[3]), deep mutational scanning, second methotrexate selection vs reference; S. cerevisiae, DHFR-PCA selection in liquid with methotrexate at 30 C, two 72 h selections (the score uses the second); reference = the pre-selection culture
row,screen value,Variant
1,"-1.03 DMS score: mean over two replicates of log2(f_test/f_ref + 0.5)/ln 2, minus the synonymous-codon median (not a log2 …",chain 1 MALEPIDYTTHSREIDAEYLKIVRGSDPDTTWLIISPNAKKEYEPESTGSSFHDFLQLFDETKVQYGLARVSPPGSDVEKIIIIGWCPDSAPLKTRASFAANFAAVANNLFKGYHVQVTARDEDDLDENELLMKISNAAGARYSIQTSSKQQGKASTPPVKKSFTPSKSPAPVSKKEPVKTPSPAPAAKISSRVNDNNDDDDWNEPELKERDFDQAPLKPNQSSYKPIGKIDLQKVIAEEKAKEDPRLVQKPTAAGSKIDPSSDIANLKNESKLKRDSEFNSFLGTTKPPSMTESSLKNDDDKVIKGFRNEKSPAQLWAERKAKQNSGNAETKAEAPKPEVPEDEPEGEPDVKDLKSKFEGLAASEKEEEEMENKFAPPPKKSEPTIISPKPFSKPQEPVKAEEAEQPKTDYKKIGNPLPGMHIEADNEEEPEENDDDWDDDEDEAAQPPLPSRNVASGAPVQKEEPEQEEIAPSLPSRNSIPAPKQEEAPEQAPEEEIEEEAEEAAPQLPSRSSAAPPPPPRRATPEKKPKENPWATAEYDYDAAEDNELHFVENDKIINIEFVDDDWWLGELEKDGSKGLFPSNYVSLGN [chain 1 T552H]
2,"-2.88 DMS score: mean over two replicates of log2(f_test/f_ref + 0.5)/ln 2, minus the synonymous-codon median (not a log2 …",chain 1 MALEPIDYTTHSREIDAEYLKIVRGSDPDTTWLIISPNAKKEYEPESTGSSFHDFLQLFDETKVQYGLARVSPPGSDVEKIIIIGWCPDSAPLKTRASFAANFAAVANNLFKGYHVQVTARDEDDLDENELLMKISNAAGARYSIQTSSKQQGKASTPPVKKSFTPSKSPAPVSKKEPVKTPSPAPAAKISSRVNDNNDDDDWNEPELKERDFDQAPLKPNQSSYKPIGKIDLQKVIAEEKAKEDPRLVQKPTAAGSKIDPSSDIANLKNESKLKRDSEFNSFLGTTKPPSMTESSLKNDDDKVIKGFRNEKSPAQLWAERKAKQNSGNAETKAEAPKPEVPEDEPEGEPDVKDLKSKFEGLAASEKEEEEMENKFAPPPKKSEPTIISPKPFSKPQEPVKAEEAEQPKTDYKKIGNPLPGMHIEADNEEEPEENDDDWDDDEDEAAQPPLPSRNVASGAPVQKEEPEQEEIAPSLPSRNSIPAPKQEEAPEQAPEEEIEEEAEEAAPQLPSRSSAAPPPPPRRATPEKKPKENPWATARYDYDAAEDNELTFVENDKIINIEFVDDDWWLGELEKDGSKGLFPSNYVSLGN [chain 1 E540R]

# Further lines, the variant ahead of its results:
row,Variant,screen value
1,chain 1 MALEPIDYTTHSREIDAEYLKIVRGSDPDTTWLIISPNAKKEYEPESTGSSFHDFLQLFDETKVQYGLARVSPPGSDVEKIIIIGWCPDSAPLKTRASFAANFAAVANNLFKGYHVQVTARDEDDLDENELLMKISNAAGARYSIQTSSKQQGKASTPPVKKSFTPSKSPAPVSKKEPVKTPSPAPAAKISSRVNDNNDDDDWNEPELKERDFDQAPLKPNQSSYKPIGKIDLQKVIAEEKAKEDPRLVQKPTAAGSKIDPSSDIANLKNESKLKRDSEFNSFLGTTKPPSMTESSLKNDDDKVIKGFRNEKSPAQLWAERKAKQNSGNAETKAEAPKPEVPEDEPEGEPDVKDLKSKFEGLAASEKEEEEMENKFAPPPKKSEPTIISPKPFSKPQEPVKAEEAEQPKTDYKKIGNPLPGMHIEADNEEEPEENDDDWDDDEDEAAQPPLPSRNVASGAPVQKEEPEQEEIAPSLPSRNSIPAPKQEEAPEQAPEEEIEEEAEEAAPQLPSRSSAAPPPPPRRATPEKKPKENPWATAEYDYDAAEDNELTFVENDKIINIEFVDDDWWLGELEKDGSKGLFPSNSVSLGN [chain 1 Y587S],"-2.24 DMS score: mean over two replicates of log2(f_test/f_ref + 0.5)/ln 2, minus the synonymous-codon median (not a log2 …"
2,chain 1 MALEPIDYTTHSREIDAEYLKIVRGSDPDTTWLIISPNAKKEYEPESTGSSFHDFLQLFDETKVQYGLARVSPPGSDVEKIIIIGWCPDSAPLKTRASFAANFAAVANNLFKGYHVQVTARDEDDLDENELLMKISNAAGARYSIQTSSKQQGKASTPPVKKSFTPSKSPAPVSKKEPVKTPSPAPAAKISSRVNDNNDDDDWNEPELKERDFDQAPLKPNQSSYKPIGKIDLQKVIAEEKAKEDPRLVQKPTAAGSKIDPSSDIANLKNESKLKRDSEFNSFLGTTKPPSMTESSLKNDDDKVIKGFRNEKSPAQLWAERKAKQNSGNAETKAEAPKPEVPEDEPEGEPDVKDLKSKFEGLAASEKEEEEMENKFAPPPKKSEPTIISPKPFSKPQEPVKAEEAEQPKTDYKKIGNPLPGMHIEADNEEEPEENDDDWDDDEDEAAQPPLPSRNVASGAPVQKEEPEQEEIAPSLPSRNSIPAPKQEEAPEQAPEEEIEEEAEEAAPQLPSRSSAAPPPPPRRATPEKKPKENPWATAEYDYCAAEDNELTFVENDKIINIEFVDDDWWLGELEKDGSKGLFPSNYVSLGN [chain 1 D544C],"1.15 DMS score: mean over two replicates of log2(f_test/f_ref + 0.5)/ln 2, minus the synonymous-codon median (not a log2 …"
3,chain 1 MALEPIDYTTHSREIDAEYLKIVRGSDPDTTWLIISPNAKKEYEPESTGSSFHDFLQLFDETKVQYGLARVSPPGSDVEKIIIIGWCPDSAPLKTRASFAANFAAVANNLFKGYHVQVTARDEDDLDENELLMKISNAAGARYSIQTSSKQQGKASTPPVKKSFTPSKSPAPVSKKEPVKTPSPAPAAKISSRVNDNNDDDDWNEPELKERDFDQAPLKPNQSSYKPIGKIDLQKVIAEEKAKEDPRLVQKPTAAGSKIDPSSDIANLKNESKLKRDSEFNSFLGTTKPPSMTESSLKNDDDKVIKGFRNEKSPAQLWAERKAKQNSGNAETKAEAPKPEVPEDEPEGEPDVKDLKSKFEGLAASEKEEEEMENKFAPPPKKSEPTIISPKPFSKPQEPVKAEEAEQPKTDYKKIGNPLPGMHIEADNEEEPEENDDDWDDDEDEAAQPPLPSRNVASGAPVQKEEPEQEEIAPSLPSRNSIPAPKQEEAPEQAPEEEIEEEAEEAAPQLPSRSSAAPPPPPRRATPEKKPKENPWATAEYDYDAAEDNELTFVENDKIINIEFVDDDWWLGELEKDGLKGLFPSNYVSLGN [chain 1 S579L],"-0.943 DMS score: mean over two replicates of log2(f_test/f_ref + 0.5)/ln 2, minus the synonymous-codon median (not a log2 …"
